According to patent publication US20100256338A1:

Biological target: EGFR on cells (H322M) (human), P00533
Experiment: cell-based or functional assay

reduction of cell growth, H322M spheroids, 7 days, 100 nM, Celltiter Glow: 77%
B1: humanized <EGFR>ICR62 (antibody, V domains shown)
VH: QVQLVQSGAEVKKPGSSVKVSCKASGFTFTDYKIHWVRQAPGQGLEWMGYFNPNSGYSTYAQKFQGRVTITADKSTSTAYMELSSLRSEDTAVYYCARLSPGGYYVMDAWGQGTTVTVSS
VL: DIQMTQSPSSLSASVGDRVTITCRASQGINNYLNWYQQKPGKAPKRLIYNTNNLQTGVPSRFSGSGSGTEFTLTISSLQPEDFATYYCLQHNSFPTFGQGTKLEIKRT
